Results on 1 protein are retold here after paper PMC4995436, “Characterization of a novel low-temperature-active, alkaline and sucrose-tolerant invertase” (Scientific Reports, 2016).

Substrate in this data set: OC[C@H]1O[C@@](CO)(O[C@H]2O[C@H](CO)[C@@H](O)[C@H](O)[C@H]2O)[C@@H](O)[C@@H]1O
The experiment in a line: initial-rate kinetics, DNS reducing sugar assay, Michaelis-Menten fit. The class given is biochemical, Bacillus sp. HJ14. The following applies: 30 °C, McIlvaine buffer pH 8.0, 1.5-36.5 mM sucrose. From the text: initial-rate kinetics, DNS reducing sugar assay, Michaelis-Menten fit on rInvHJ14 (InvHJ14)

B1: rInvHJ14 (InvHJ14) (Bacillus sp. HJ14) (protein)
chain: MTTTDAALRQKIADRIRNYEHLVKKDVYRQHFHLMPPVGLLNDPNGLIQWKGIYHVFYQWQPFKTGHGAKFWGHYTSTDLVNWQHEEAALAPSDWFDQNGCYSGSAFIDDGQMHVMYTGNVRDEQGNRETYQCLAVSEDGIHFQKKGVVATLPEGFTAHFRDPKVWKRNGQWYMVLGAQSLDLKGHLVLFTSDTLDNWTFQGTIAGSGKNGLDNFGYMWECPDLFELDGRDVLIVSPQGLEPDGLKYHNTHQSGYFVGTLDDHSYQYTHGAFEELDRGFDFYAQQTFLDESGRRLLIGWMGVPDQGEEHHPTISYQWIHCLTIPRELRLDEDGHLIQKPVSELQSMRTNEQEHVFHIKRSVHSIPVEDITSAEVFIDQIDTQKGFECCIRAAARIIYDKEEGKLTLERDRFEDRSKEVREAVIEELHDLHIFIDSSSIEIFVNGGREVFTARYFPSPGNKSISISGRNETKLKLKAWHLQREADQ
notes: pEASY-E2 vector, E. coli BL21 (DE3), Ni-NTA purified, approximately 58 kDa on SDS-PAGE
By Km is commonly meant the concentration of substrate that gives half-maximal velocity. As usually defined, the Vmax is the top rate of the reaction or transport when substrate is in excess. In general, kcat refers to the number of substrate molecules converted per active site and unit of time at saturation. As a reminder, the kcat/Km is the turnover number divided by the Michaelis constant. B1: the Km turned out to be 62.9 mM, the Vmax is 772 µmol/min/mg, the kcat is 746 s⁻¹ and the kcat/Km came to 11900 M⁻¹ s⁻¹.
